# T1: FL-5Mal conjugated NFG1CG4-hFasLECD (human, UniProt P48023 139-281, N184Q | N250Q, Fluorescein-5-Maleimide conjugated to the unpaired cysteine in the N-terminal tag sequence (estimated 2.5 per trimer, approximately 83 % of the cysteines))
# T1 construct: linker of the N-terminal tag, between FLAG (DYKDDDDK) and residue 139 of hFasLECD; printed in three-letter code; its Cys is the conjugation site; human Fas ligand (CD178) extracellular domain with residues 103-138 deleted: hFasLECD (139-281, N184Q, N250Q); It calls the protein a trimer in words only; also called Fluorescein-5-Maleimide conjugated human Fas ligand extracellular domain derivative; …
# T1 sequence: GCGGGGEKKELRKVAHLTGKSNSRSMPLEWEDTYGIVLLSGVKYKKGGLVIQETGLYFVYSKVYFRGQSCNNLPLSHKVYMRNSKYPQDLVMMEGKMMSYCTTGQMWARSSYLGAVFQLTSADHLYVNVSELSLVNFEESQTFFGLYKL
# B1: human Fas receptor extracellular domain—human IgG1 Fc domain fusion protein (Fc fusion, UniProt P25445 26-173, looked up)
# chain: QVTDINSKGLELRKTVTTVETQNLEGLHHDGQFCHKPCPPGERKARDCTVNGDEPDCVPCQEGKEYTDKAHFSSKCRRCRLCDEGHGLEVEINCTRTQNTKCRCKPNFFCNSTVCEHCDPCTKCEHGIIKECTLTSNTKCKEEGSRSN
# notes: human Fas receptor (CD95) extracellular domain; also called hFasRECD-Fc; source: baculovirus—Bombyx mori larvae expression system, purified (Hi-Trap Protein G HP, Mono Q 10/10; main peak also by Superdex 200)
# Target: T1, FL-5Mal conjugated NFG1CG4-hFasLECD
# Assay: SEC; mixtures of hFasRECD-Fc and the conjugate in several amount ratios on Superdex 200 10/300 GL; 50 mM Tris-hydrochloride, 150 mM sodium chloride, pH 7.5; 0.5 ml/min; absorbance at 280 and 495 nm
# Details: both partners purified
binder,measurement,value
B1,binding result,binds

# — publication PMC4936993, “Preparation of a functional fluorescent human Fas ligand extracellular domain derivative using a three-dimensional structure guided site-specific fluorochrome conjugation” (SpringerPlus, 2016)
